This is an account of results in the RNAGym collection of RNA variant scans (doi:10.1021/acssynbio.7b00057).

B1: Pistol ribozyme (parent)
chain: GGGUCGUUGUUCCAUAAUCGCGUGGAUAUGGCACGCAAGUUUCUACCGGGCACCGUAAAUGUCCGACUGGAGCCGUUCGGGCGGCUAUAAACAGACCUCAGGCCCGAAGCGUGGCGGCACCUGCCGCCGGUGGUAAAAAAGAUCGGAAGAGCACACGUCU

In this data set the parent is B1. Description: aptazyme ON/OFF ratio, guanine; higher = stronger switching; co-transcriptional cleavage with and without guanine.
Take GGGUCGACACUAUAUAAUCGCGUGGAUAUGGCACGCAAGUUUCUACCGGGCACCGUAAAUGUCCGACUGGAGCCGUUCGGGCGGCUAUAAACAGACCUCAGGCCCGAAGCGUGGCGGCACCUGCCGCCGGUGGUAAAAAAGAUCGGAAGAGCACACGUCU: the “aptazyme ON/OFF ratio” value came to 1.13.
Regarding GGGUCGACACUAAAUAAUCGCGUGGAUAUGGCACGCAAGUUUCUACCGGGCACCGUAAAUGUCCGACUGGAGCCGUUCGGGCGGCUAUAAACAGACCUCAGGCCCGAAGCGUGGCGGCACCUGCCGCCGGUGGUAAAAAAGAUCGGAAGAGCACACGUCU, the “aptazyme ON/OFF ratio” value was found to be 1.2.
In the case of GGGUCGACACUAGAUAAUCGCGUGGAUAUGGCACGCAAGUUUCUACCGGGCACCGUAAAUGUCCGACUGGAGCCGUUCGGGCGGCUAUAAACAGACCUCAGGCCCGAAGCGUGGCGGCACCUGCCGCCGGUGGUAAAAAAGAUCGGAAGAGCACACGUCU it was 1.18.
In the case of GGGUCGACACCACAUAAUCGCGUGGAUAUGGCACGCAAGUUUCUACCGGGCACCGUAAAUGUCCGACUGGAGCCGUUCGGGCGGCUAUAAACAGACCUCAGGCCCGAAGCGUGGCGGCACCUGCCGCCGGUGGUAAAAAAGAUCGGAAGAGCACACGUCU it was 1.18; in that of GGGUCGACACUCCAUAAUCGCGUGGAUAUGGCACGCAAGUUUCUACCGGGCACCGUAAAUGUCCGACUGGAGCCGUUCGGGCGGCUAUAAACAGACCUCAGGCCCGAAGCGUGGCGGCACCUGCCGCCGGUGGUAAAAAAGAUCGGAAGAGCACACGUCU, 2.35.
Turning to GGGUCGACACAGAAUAAUCGCGUGGAUAUGGCACGCAAGUUUCUACCGGGCACCGUAAAUGUCCGACUGGAGCCGUUCGGGCGGCUAUAAACAGACCUCAGGCCCGAAGCGUGGCGGCACCUGCCGCCGGUGGUAAAAAAGAUCGGAAGAGCACACGUCU, the “aptazyme ON/OFF ratio” value turned out to be 1.1.
The figure for GGGUCGACACAGGAUAAUCGCGUGGAUAUGGCACGCAAGUUUCUACCGGGCACCGUAAAUGUCCGACUGGAGCCGUUCGGGCGGCUAUAAACAGACCUCAGGCCCGAAGCGUGGCGGCACCUGCCGCCGGUGGUAAAAAAGAUCGGAAGAGCACACGUCU is 1.22; for GGGUCGACACAGUAUAAUCGCGUGGAUAUGGCACGCAAGUUUCUACCGGGCACCGUAAAUGUCCGACUGGAGCCGUUCGGGCGGCUAUAAACAGACCUCAGGCCCGAAGCGUGGCGGCACCUGCCGCCGGUGGUAAAAAAGAUCGGAAGAGCACACGUCU it is 1.09.
As for GGGUCGACACCCCAUAAUCGCGUGGAUAUGGCACGCAAGUUUCUACCGGGCACCGUAAAUGUCCGACUGGAGCCGUUCGGGCGGCUAUAAACAGACCUCAGGCCCGAAGCGUGGCGGCACCUGCCGCCGGUGGUAAAAAAGAUCGGAAGAGCACACGUCU, the “aptazyme ON/OFF ratio” value turned out to be 1.08.
In the case of GGGUCGACACACCAUAAUCGCGUGGAUAUGGCACGCAAGUUUCUACCGGGCACCGUAAAUGUCCGACUGGAGCCGUUCGGGCGGCUAUAAACAGACCUCAGGCCCGAAGCGUGGCGGCACCUGCCGCCGGUGGUAAAAAAGAUCGGAAGAGCACACGUCU it was 1.24; in that of GGGUCGACACAAAAUAAUCGCGUGGAUAUGGCACGCAAGUUUCUACCGGGCACCGUAAAUGUCCGACUGGAGCCGUUCGGGCGGCUAUAAACAGACCUCAGGCCCGAAGCGUGGCGGCACCUGCCGCCGGUGGUAAAAAAGAUCGGAAGAGCACACGUCU, 1.13; in that of GGGUCGACACAAUAUAAUCGCGUGGAUAUGGCACGCAAGUUUCUACCGGGCACCGUAAAUGUCCGACUGGAGCCGUUCGGGCGGCUAUAAACAGACCUCAGGCCCGAAGCGUGGCGGCACCUGCCGCCGGUGGUAAAAAAGAUCGGAAGAGCACACGUCU, 1.19.
The figure for GGGUCGACACAAGAUAAUCGCGUGGAUAUGGCACGCAAGUUUCUACCGGGCACCGUAAAUGUCCGACUGGAGCCGUUCGGGCGGCUAUAAACAGACCUCAGGCCCGAAGCGUGGCGGCACCUGCCGCCGGUGGUAAAAAAGAUCGGAAGAGCACACGUCU is 1.1; for GGGUCGACACUACAUAAUCGCGUGGAUAUGGCACGCAAGUUUCUACCGGGCACCGUAAAUGUCCGACUGGAGCCGUUCGGGCGGCUAUAAACAGACCUCAGGCCCGAAGCGUGGCGGCACCUGCCGCCGGUGGUAAAAAAGAUCGGAAGAGCACACGUCU it is 1.21.
With GGGUCGACACUUCAUAAUCGCGUGGAUAUGGCACGCAAGUUUCUACCGGGCACCGUAAAUGUCCGACUGGAGCCGUUCGGGCGGCUAUAAACAGACCUCAGGCCCGAAGCGUGGCGGCACCUGCCGCCGGUGGUAAAAAAGAUCGGAAGAGCACACGUCU, the “aptazyme ON/OFF ratio” value was determined as 1.35.
In the case of GGGUCGACACUGCAUAAUCGCGUGGAUAUGGCACGCAAGUUUCUACCGGGCACCGUAAAUGUCCGACUGGAGCCGUUCGGGCGGCUAUAAACAGACCUCAGGCCCGAAGCGUGGCGGCACCUGCCGCCGGUGGUAAAAAAGAUCGGAAGAGCACACGUCU it was 1.29; in that of GGGUCGACACAUGAUAAUCGCGUGGAUAUGGCACGCAAGUUUCUACCGGGCACCGUAAAUGUCCGACUGGAGCCGUUCGGGCGGCUAUAAACAGACCUCAGGCCCGAAGCGUGGCGGCACCUGCCGCCGGUGGUAAAAAAGAUCGGAAGAGCACACGUCU, 1.15; in that of GGGUCGACACAUUAUAAUCGCGUGGAUAUGGCACGCAAGUUUCUACCGGGCACCGUAAAUGUCCGACUGGAGCCGUUCGGGCGGCUAUAAACAGACCUCAGGCCCGAAGCGUGGCGGCACCUGCCGCCGGUGGUAAAAAAGAUCGGAAGAGCACACGUCU, 1.18.
Regarding GGGUCGACACAUAAUAAUCGCGUGGAUAUGGCACGCAAGUUUCUACCGGGCACCGUAAAUGUCCGACUGGAGCCGUUCGGGCGGCUAUAAACAGACCUCAGGCCCGAAGCGUGGCGGCACCUGCCGCCGGUGGUAAAAAAGAUCGGAAGAGCACACGUCU, the “aptazyme ON/OFF ratio” value stood at 1.12.
The figure for GGGUCGACACAUCAUAAUCGCGUGGAUAUGGCACGCAAGUUUCUACCGGGCACCGUAAAUGUCCGACUGGAGCCGUUCGGGCGGCUAUAAACAGACCUCAGGCCCGAAGCGUGGCGGCACCUGCCGCCGGUGGUAAAAAAGAUCGGAAGAGCACACGUCU is 1.25.
In the case of GGGUCGACACAGCAUAAUCGCGUGGAUAUGGCACGCAAGUUUCUACCGGGCACCGUAAAUGUCCGACUGGAGCCGUUCGGGCGGCUAUAAACAGACCUCAGGCCCGAAGCGUGGCGGCACCUGCCGCCGGUGGUAAAAAAGAUCGGAAGAGCACACGUCU it was 1.21; in that of GGGUCGACACAACAUAAUCGCGUGGAUAUGGCACGCAAGUUUCUACCGGGCACCGUAAAUGUCCGACUGGAGCCGUUCGGGCGGCUAUAAACAGACCUCAGGCCCGAAGCGUGGCGGCACCUGCCGCCGGUGGUAAAAAAGAUCGGAAGAGCACACGUCU, 1.19.
The figure for GGGUCGACACUGUAUAAUCGCGUGGAUAUGGCACGCAAGUUUCUACCGGGCACCGUAAAUGUCCGACUGGAGCCGUUCGGGCGGCUAUAAACAGACCUCAGGCCCGAAGCGUGGCGGCACCUGCCGCCGGUGGUAAAAAAGAUCGGAAGAGCACACGUCU is 1.23.
GGGUCGACACUGGAUAAUCGCGUGGAUAUGGCACGCAAGUUUCUACCGGGCACCGUAAAUGUCCGACUGGAGCCGUUCGGGCGGCUAUAAACAGACCUCAGGCCCGAAGCGUGGCGGCACCUGCCGCCGGUGGUAAAAAAGAUCGGAAGAGCACACGUCU: the “aptazyme ON/OFF ratio” value stood at 1.16.
The figure for GGGUCGACACUGAAUAAUCGCGUGGAUAUGGCACGCAAGUUUCUACCGGGCACCGUAAAUGUCCGACUGGAGCCGUUCGGGCGGCUAUAAACAGACCUCAGGCCCGAAGCGUGGCGGCACCUGCCGCCGGUGGUAAAAAAGAUCGGAAGAGCACACGUCU is 1.12; for GGGUCGACACUUUAUAAUCGCGUGGAUAUGGCACGCAAGUUUCUACCGGGCACCGUAAAUGUCCGACUGGAGCCGUUCGGGCGGCUAUAAACAGACCUCAGGCCCGAAGCGUGGCGGCACCUGCCGCCGGUGGUAAAAAAGAUCGGAAGAGCACACGUCU it is 1.26; for GGGUCGACACUUAAUAAUCGCGUGGAUAUGGCACGCAAGUUUCUACCGGGCACCGUAAAUGUCCGACUGGAGCCGUUCGGGCGGCUAUAAACAGACCUCAGGCCCGAAGCGUGGCGGCACCUGCCGCCGGUGGUAAAAAAGAUCGGAAGAGCACACGUCU it is 1.17.
In the case of GGGUCGACACUUGAUAAUCGCGUGGAUAUGGCACGCAAGUUUCUACCGGGCACCGUAAAUGUCCGACUGGAGCCGUUCGGGCGGCUAUAAACAGACCUCAGGCCCGAAGCGUGGCGGCACCUGCCGCCGGUGGUAAAAAAGAUCGGAAGAGCACACGUCU it was 1.1; in that of GGGUCGACACCAGAUAAUCGCGUGGAUAUGGCACGCAAGUUUCUACCGGGCACCGUAAAUGUCCGACUGGAGCCGUUCGGGCGGCUAUAAACAGACCUCAGGCCCGAAGCGUGGCGGCACCUGCCGCCGGUGGUAAAAAAGAUCGGAAGAGCACACGUCU, 1.09.
With GGGUCGACACCAAAUAAUCGCGUGGAUAUGGCACGCAAGUUUCUACCGGGCACCGUAAAUGUCCGACUGGAGCCGUUCGGGCGGCUAUAAACAGACCUCAGGCCCGAAGCGUGGCGGCACCUGCCGCCGGUGGUAAAAAAGAUCGGAAGAGCACACGUCU, the “aptazyme ON/OFF ratio” value was determined as 1.08.
In the case of GGGUCGACACUCUAUAAUCGCGUGGAUAUGGCACGCAAGUUUCUACCGGGCACCGUAAAUGUCCGACUGGAGCCGUUCGGGCGGCUAUAAACAGACCUCAGGCCCGAAGCGUGGCGGCACCUGCCGCCGGUGGUAAAAAAGAUCGGAAGAGCACACGUCU it was 1.12; in that of GGGUCGACACUCGAUAAUCGCGUGGAUAUGGCACGCAAGUUUCUACCGGGCACCGUAAAUGUCCGACUGGAGCCGUUCGGGCGGCUAUAAACAGACCUCAGGCCCGAAGCGUGGCGGCACCUGCCGCCGGUGGUAAAAAAGAUCGGAAGAGCACACGUCU, 1.07.
Consider GGGUCGACACUCAAUAAUCGCGUGGAUAUGGCACGCAAGUUUCUACCGGGCACCGUAAAUGUCCGACUGGAGCCGUUCGGGCGGCUAUAAACAGACCUCAGGCCCGAAGCGUGGCGGCACCUGCCGCCGGUGGUAAAAAAGAUCGGAAGAGCACACGUCU, for which the “aptazyme ON/OFF ratio” value was found to be 1.09.
In the case of GGGUCGACACACUAUAAUCGCGUGGAUAUGGCACGCAAGUUUCUACCGGGCACCGUAAAUGUCCGACUGGAGCCGUUCGGGCGGCUAUAAACAGACCUCAGGCCCGAAGCGUGGCGGCACCUGCCGCCGGUGGUAAAAAAGAUCGGAAGAGCACACGUCU it was 1.28.
Turning to GGGUCGACACACAAUAAUCGCGUGGAUAUGGCACGCAAGUUUCUACCGGGCACCGUAAAUGUCCGACUGGAGCCGUUCGGGCGGCUAUAAACAGACCUCAGGCCCGAAGCGUGGCGGCACCUGCCGCCGGUGGUAAAAAAGAUCGGAAGAGCACACGUCU, the “aptazyme ON/OFF ratio” value was 1.18.
In the case of GGGUCGACACACGAUAAUCGCGUGGAUAUGGCACGCAAGUUUCUACCGGGCACCGUAAAUGUCCGACUGGAGCCGUUCGGGCGGCUAUAAACAGACCUCAGGCCCGAAGCGUGGCGGCACCUGCCGCCGGUGGUAAAAAAGAUCGGAAGAGCACACGUCU it was 1.17.
